Reference: paper PMC9348577, “Dimerization of kringle 1 domain from hepatocyte growth factor/scatter factor provides a potent MET receptor agonist” (Life Science Alliance, 2022)

Assays:
MET567 [1] = biological target: T1, MET567 (human, UniProt P08581 25-567); assay: SEC-SAXS; K1K1 in complex with MET567 injected on Superdex 200 PC 3.2/300 Increase on line with SAXS (ESRF BM29); 25 mM Tris (pH 7.4), 150 mM NaCl; details: both partners purified
T1 construct: human MET receptor fragment MET567 comprising the N-terminal SEMA domain and the cysteine-rich/PSI domain; as I recall it spans residues 25-567 of MET; also called MET567 receptor fragment; MET567 fragment; source: CHO Lec 3.2.8.1 cells, purified as described in Gherardi et al (2003)
T1 sequence (P08581 25-567): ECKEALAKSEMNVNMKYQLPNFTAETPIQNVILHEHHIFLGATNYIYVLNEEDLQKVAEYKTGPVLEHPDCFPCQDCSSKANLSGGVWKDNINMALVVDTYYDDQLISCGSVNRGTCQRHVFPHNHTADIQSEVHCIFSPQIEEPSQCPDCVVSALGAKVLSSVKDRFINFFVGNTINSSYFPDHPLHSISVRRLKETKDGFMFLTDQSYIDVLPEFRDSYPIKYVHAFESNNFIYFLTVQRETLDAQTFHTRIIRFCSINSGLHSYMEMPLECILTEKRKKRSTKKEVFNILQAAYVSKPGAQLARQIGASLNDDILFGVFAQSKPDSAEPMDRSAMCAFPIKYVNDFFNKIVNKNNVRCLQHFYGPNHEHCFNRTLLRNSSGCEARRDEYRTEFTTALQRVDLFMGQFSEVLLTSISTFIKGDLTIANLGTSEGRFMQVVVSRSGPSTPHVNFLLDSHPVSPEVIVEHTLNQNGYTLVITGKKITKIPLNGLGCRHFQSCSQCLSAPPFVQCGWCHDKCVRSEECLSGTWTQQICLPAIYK

MET567 [2] = biological target: T1, MET567; assay: SPR; Biacore T200; MET567 immobilised at low density (515 RU) by amine coupling on a CM5 chip; 25°C, PBST (PBS + 0.05% Tween 20), 30 ul/min, 300-s injections to equilibrium; apparent KD from the binding isotherm; details: both partners purified

| stoichiometry N (MET567 [1]) | Kd (MET567 [2]) | Binder |
| --- | --- | --- |
| 1 | 205 nM | K1K1 (ligand, Intra-kringle disulphides (three per kringle). The initiator Met of the MAIRN construct is absent from the 7OCL entity, so paper numbering = entity number + 1. Layout: (M)AIRN + HGF 128-206 + SEVE + …) AIRNCIIGKGRSYKGTVSITKSGIKCQPWSSMIPHEHSFLPSSYRGKDLQENYCRNPRGEEGGPWCFTSNPEVRYEVCDIPQCSEVECIIGKGRSYKGTVSITKSGIKCQPWSSMIPHEHSFLPSSYRGKDLQENYCRNPRGEEGGPWCFTSNPEVRYEVCDIPQCSEVE |
| – | 200 nM | NK1 (natural protein, human, UniProt P14210 28-209, looked up, human NK1, splice variant of HGF/SF with the N-domain and the first kringle domain (K1), residues 28-209; also called recombinant human NK1 protein; wild-type NK1; source: Pichia pastoris, purified as described in Chirgadze et al (1999)) YAEGQRKRRNTIHEFKKSAKTTLIKIDPALKIKTKKVNTADQCANRCTRNKGLPFTCKAFVFDKARKQCLWFPFNSMSSGVKKEFGHEFDLYENKDYIRNCIIGKGRSYKGTVSITKSGIKCQPWSSMIPHEHSFLPSSYRGKDLQENYCRNPRGEEGGPWCFTSNPEVRYEVCDIPQCSEV |
